Data on one protein can be found in article PMC10939272, “Structural insights into the octamerization of glycerol dehydrogenase” (PLOS ONE, 2024).

The data set deals with the molecule itself. Put plainly: crystal structure; hanging-drop vapor diffusion, 20°C, pH 4.2, with ZnCl2 and NAD+, soaked in glycerol; space group I422, 2.0 Å; octamer by non-crystallographic 2-fold and crystallographic 4-fold symmetry.

B1: Escherichia coli glycerol dehydrogenase (GDH), full-length (1-367) (enzyme, E. coli K12 MG1655, UniProt P0A9S5 1-367, looked up)
chain: MDRIIQSPGKYIQGADVINRLGEYLKPLAERWLVVGDKFVLGFAQSTVEKSFKDAGLVVEIAPFGGECSQNEIDRLRGIAETAQCGAILGIGGGKTLDTAKALAHFMGVPVAIAPTIASTDAPCSALSVIYTDEGEFDRYLLLPNNPNMVIVDTKIVAGAPARLLAAGIGDALATWFEARACSRSGATTMAGGKCTQAALALAELCYNTLLEEGEKAMLAAEQHVVTPALERVIEANTYLSGVGFESGGLAAAHAVHNGLTAIPDAHHYYHGEKVAFGTLTQLVLENAPVEEIETVAALSHAVGLPITLAQLDIKEDVPAKMRIVAEAACAEGETIHNMPGGATPDQVYAALLVADQYGQRFLQEWE
notes: glycerol dehydrogenase (GDH; EC 1.1.1.6) of E. coli K12 MG1655, full length, residues 1-367; Homo-octamer; Two protomers (Mol-A, Mol-B) lie in the asymmetric unit and the octamer is formed by crystallographic 4-fold symmetry; Crystallised with Zn2+ and NAD+ and soaked in glycerol; also called E. coli GDH; GDH^NAD∙Gly; source: E. coli BL21 (DE3), purified (Ni-IDA, size-exclusion chromatography)
What is called stoichiometry N is the number of molecules, sites or subunits per partner or assembly. Consider B1, for which the “stoichiometry N” value turned out to be 8.
